From the supplement of paper PMC9170038

Tested on: K4 kissing-loop RNA reporter
Assay: apparent KD of K4 kissing-loop reporter; higher = weaker reporter binding
Settings: Eterna round: R107
Description: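 RNA-MaP round R107: designed RNA switches with theophylline, tryptophan, arginine or FMN aptamers are transcribed on-chip within common flanks. They are titrated with a labelled K4 kissing-loop RNA reporter in RNA-MaP buffer (100 mM Tris pH 7.5, 80 mM KCl, 4 mM MgCl2), without ligand or with the indicated ligand. Median apparent KD per design.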

[1] = input ligand: theophylline 20 uM
[2] = input ligand: tryptophan 2.4 mM
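Further: bound reporter read as fluorescence of individual clusters on recovered sequencing chips by microscopy, with normalized cluster intensities fitted with a binding model.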

| Sequence | apparent KD of K4 kissing-loop reporter (input ligand: FMN 200 uM) | apparent KD of K4 kissing-loop reporter (input ligand: arginine 13.2 mM) | apparent KD of K4 kissing-loop reporter (input ligand: none) | apparent KD of K4 kissing-loop reporter [1] | apparent KD of K4 kissing-loop reporter [2] |
| --- | --- | --- | --- | --- | --- |
| AGAGUACGAAAGUACUCCUCUACACACUGACGAGGACCGGUACGGCCGCCACUCGAGUUGAGUGAUGUUCGAUAGUGUGUAGAGA [Omei KL Tryp A SS C v3] | 213 nM | 38.4 nM | 97 nM | 312 nM | 1120 nM |
| AAAAUUAAGGCCGAAUUAACUUCUUGCAUACGAGGACCGGUACGGCCGCCACUCGAGUCAAGUGAUGUUUGACAAUCUAUUAUUA [JR_ExcTryptoA_Sub010] | 81.2 nM | 124 nM | 110 nM | 138 nM | 128 nM |
| ACUGUACCGGGAAGGAGCGUGAAUGAGAAUGGAUAUAGUGAUGUUAUGUAUACGAACGAAUCGCAGGUAGGUCGCCCGGAUCCCU [SSArgB.aC] | 617 nM | 322 nM | 398 nM | 851 nM | 553 nM |
| AGUGGUGUUGUGUUAUGUUUGGGAAGUGAUCGAGGACCGGUACGGCCGCCACUCGAGUGAUGAGUGAGUGAUGUUUGUUUAGGGA [whbob_SS_Tryp_A_m10] | 927 nM | 636 nM | 1530 nM | 646 nM | 658 nM |
| UAACUUGCAGUGAUGUUGCAAGAACUGGAUACCAGCAUGGAAACAUGCCCUUGGCAGCCAGAAGGUAUCCUACAUCACAGAUACU [Design2] | 220 nM | 202 nM | 214 nM | 226 nM | 197 nM |
| ACGUGUCACUGAAGGAGCGUCUACCGAAUACGAGUGAUGUUCGUACACCACUGAUAUAGUGGACAGGUAGGUCGCAGUGAUACGU [Arg B Ex t3] | 120 nM | 101 nM | 122 nM | 102 nM | 107 nM |
| AGAACUGUCUGAGAUACCAGCUAAGGAGUGAUGUUCCUAGGUCCACGAAAGUGGACCCAUAGCCCUUGGCAGCUCAGACAGUUCA [#23 K4 Theophylline B Same State] | 1280 nM | 833 nM | 1370 nM | 674 nM | 1160 nM |
| UACUUAUUUUUUAACUUAAAUUUUUCAGAAGGAGCGUGAUCAUUCACAGGUAGGUCGCUGAACUAGUGAUGUUAGUUUUAAUUUU [JR_Nu_ExcArginiA_Sub024] | 62.9 nM | 115 nM | 63.9 nM | 104 nM | 56.5 nM |
| GGAUUUGAAAGUGAGUGAUGUUCAUGUUGUGAGGAUAUGUAGAGAUAUAGAAGGCACGUUUGUAUUUUUUUUGUGUGAGAUUAAA [Last Minute #1] | 81.5 nM | 64.9 nM | 65.1 nM | 75.2 nM | 65.5 nM |
| AGUGAUGUUCCUCCUCUUGGUCUUGGUGGGCGAGGACCGGUACGGCCGCCACUCGAUGUGGGAGUGAUGUUUCCAUAUGAUGUUU [Tryptophan A] | 568 nM | 580 nM | 621 nM | 675 nM | 401 nM |
| CCAUCGCUAUUCGAUACCAGCUACUUAGUGAUGUUAAGUUAAAAUCCAUUGUAGAUGGAAAGCCCUUGGCAGCGAAUAGUGAUGG [Theophylline B K4 22] | 440 nM | 398 nM | 465 nM | 210 nM | 410 nM |
| UAUUAAUUGACGGCCGCCACUAUUGUGAUUUAUUUGUUUGAGUGAUGUUUUGAUGUUUGAUUUUGUAGGACCGGGUUAUGUGUUA [zwzcmullin] | 918 nM | 768 nM | 954 nM | 816 nM | 711 nM |
| UGUCAUGGAAACAUGAACGUUGAAAUAAGACGAGGACCGGUACGGCCGCCACUCGAAUAAUGGUCAGUGAUGUUGACUGGAAUAA [KL-SSTryp-A form1 sub7 #dotplot2>1] | 60.5 nM | 104 nM | 70.3 nM | 103 nM | 61.3 nM |
| UGUGUUUACCUGACUCAGUGAUGUUGAGAAGGAGCGUGCGAACGCACAGGUAGGUCGCUCAACCUAAAUUCAGGUGAGCACUAAA | 430 nM | 443 nM | 499 nM | 611 nM | 398 nM |
| CUUAAGGAGUGUCGUGCCGGACACUGGGAAGGAGCGCAAUUCUUUGCAGGUAGGUCGCCCAGUGAUGUUGGGUCUCGCUGUCGAA [KL-XArg-A20] | 139 nM | 253 nM | 204 nM | 376 nM | 285 nM |
| GUAGACGUGCCUUCAGUGAUGUUGAAGGAUACCAGAUGUUACCACAUCCCUUGGCAGCCUUGGGAUAACAGUGAGUCGGUAUAUG [Ontierso] | 255 nM | 200 nM | 297 nM | 253 nM | 247 nM |
| CCGAUACAUUAUUCUACGGCCGAGAGUGAUACCAGCCAUAUUUAUGGCCCUUGGCAGCGCAGAUGCAGUGAUGUUGCAUACUUAC [Same State Theophylline A GF 19] | 85.7 nM | 119 nM | 91.5 nM | 115 nM | 73.7 nM |
| UGAACCGCCCAGUGAUGUUGGGCCAUAGAUACCAGCCUCUCCGACGGCCCUUGGCAGCUAGGGCCCGGCAGGUAGGAGACUCUGC [Orarzasove] | 199 nM | 220 nM | 272 nM | 239 nM | 204 nM |
| AUUUGUUUAUGUGAUACCAGACUAAGCAGUGAUGUUGCUUUUAUUUUUGAAUUUUAAAUAGUCCCUUGGCAGCACUAUGUAUUUA [JR_SSTheophyB_Sub010] | 60.6 nM | 93.1 nM | 70.2 nM | 99.2 nM | 60.3 nM |
| GGAUAGGACAGAGGAUAUCCUUGAGGCAAGAAACUUGUCUCUAAAAGGAUGAACCUAGUGAUGUUAGGAGAAGGCUGUCCUAUCG [FmnBX 13 - #SwitchBubble #StaticStem #Palindromic] | 132 nM | 90 nM | 98.2 nM | 85 nM | 95.9 nM |
| UUCGAUCAGUGAUGUUGAUCAAUAGUCGAAGGAGCGCUAUAGAUAGCAGGUAGGUCGCGACUACAAGGUGUUAAGACACCUCGAA [Arg A SS t9] | 505 nM | 430 nM | 525 nM | 443 nM | 431 nM |
| GGGAUGAUGUCGGCCGCCACUGACUGUGUCCAGUGAUGUUGGGAGUGUACGGAAGUUCCAUAUAUCAGGACCGGGACCUCGCUCC [theeternabot_sameState_KL_Trp_B_44] | 866 nM | 487 nM | 938 nM | 817 nM | 616 nM |

| Sequence | apparent KD of K4 kissing-loop reporter (input ligand: FMN 200 uM) | apparent KD of K4 kissing-loop reporter (input ligand: arginine 13.2 mM) | apparent KD of K4 kissing-loop reporter (input ligand: none) | apparent KD of K4 kissing-loop reporter [1] | apparent KD of K4 kissing-loop reporter [2] |
| --- | --- | --- | --- | --- | --- |
| UCUGUGUCCGCGGCCGCCACUCGGGACUAAGUGAUGUUUAGUCCUUCAGAAUAAAGAAGUGAUGAGAGGACCGGGCGAUCGCACC [theeternabot_sameState_KL_Trp_B_2] | 100 nM | 81.9 nM | 99.6 nM | 72.3 nM | 102 nM |
| CACCAUGAAUUCUCUAGGAGUGAUGUUUUUCGAGGACCGGUACGGCCGCCACUCGGACGAGGACCGUGGGAGCGGCGAAGCGGCU [?oegmullin] | 99.2 nM | 59.1 nM | 767 nM | 169 nM | 104 nM |
| AGCUGUAGCAGAAGGAGCGACAGUUAUUCUGAUAGUACUCUGAGUGAUGUUCAGAACGACUGUCAGGUAGGUCGCUGUUACAGCU [Arg B Ex t8b] | 166 nM | 167 nM | 169 nM | 143 nM | 162 nM |
| AGACUACUGAUAGGAUAUAACAUACUACCUCGUAUACCAAAGGUAUACGAGGCCCUUCUAGUGAUGUUAGAAGGGUCGGUAGUCA [Omei KL FMN B Exc B v5] | 93.5 nM | 76.4 nM | 79.5 nM | 81.2 nM | 83.2 nM |
| GGGAGGAGUGGUGUUGAUUAGGGAGCGGAAGGAGCGCCGAGGAAGGCAGGUAGGUCGCCGGAUUAUAGUGAUGUUAUGAAGAGGG [ExArg.J] | 663 nM | 716 nM | 679 nM | 1010 nM | 577 nM |
| GCAGACCGCAGUGAUGUUGCGAAAUCGGAAGGAGCGCGUGAAAACGCAGGUAGGUCGCCGACACAGGGAUUAUAACCCUGUUUGC [Arginine A K4 16] | 173 nM | 196 nM | 207 nM | 176 nM | 154 nM |
| AAAAUAAUCCAGUGAUGUUGGUAUACAGAUACCAGCGACGAAAGUCGCCCUUGGCAGCUGUGGACGUACAAAAUAAGUACGUCCU | 934 nM | 972 nM | 1210 nM | 592 nM | 813 nM |
| CGUAGAUACUGAGGAUAUCAGAAAUCUGAUAUCAUCAGAGGUCUGAGUGAUGUUCAGAUGCGACUCUGAGAAGGCAGUAGGAGUC [FMN B Ex t2] | 134 nM | 107 nM | 131 nM | 123 nM | 115 nM |
| AGGAGCGUGGGAUGUAAAUCGCACGCUCCUCGAGGACCGGUACGGCCGCCACUCGCUCGCGCCGAGUGAUGUUCGGCCGGCGAAC [#2 Same State - Tryptophan A Attempt #13 (HarryS)] | 243 nM | 325 nM | 225 nM | 209 nM | 446 nM |
| AUUCUAUGGAGUGAUGUUCCUGUGAUGUCACGAGGACCGGUACGGCCGCCACUCGAUGUAUUGGUUUUUGAAAGAAACAACUGCA [Same State-Tryptophan A] | 566 nM | 701 nM | 842 nM | 773 nM | 279 nM |
| UGAUUGCCAGUGAUGUUGGCAUAAACUGAAGGAGCGCGUGAAAACGCAGGUAGGUCGCAGUACCAUGCCAAUUGAUCGAAAGAUC [KL-XArg-A2] | 143 nM | 150 nM | 155 nM | 169 nM | 141 nM |
| UUAGAUGAUUCAUCAAGAUUGAUGAGGAAACGAGGACCGGUACGGCCGCCACUCGAGUGAUGUUCGAGAACCUCAUCAAUCAAUU [AK4.4 Exc Tryptophan A] | 162 nM | 150 nM | 154 nM | 154 nM | 333 nM |
| UGUCAUGGAAACAUGAACGUUGAAAUAUGACGAGGACCGGUACGGCCGCCACUCGAGUAAUGGUCAGUGAUGUUGACUGGAUUAA [KL-SSTryp-A form1 sub5 #split stat1] | 59.9 nM | 110 nM | 81.9 nM | 103 nM | 51.9 nM |
| AAGUGUGUGGCGGCCGCCACUAGAAUCCAGUGAUGUUGGAGAUAUCUCGUAAGAGAUAUCCGCCAUAGGACCGGGCCAUAUAGAA [Same State - Tryptophan B (Freestyle 15)] | 981 nM | 720 nM | 1260 nM | 413 nM | 771 nM |
| GAUUGAGUGAUGUUCAAUUAGUAUCUAGAUACCAGAAUGUCUACCUUCCCUUGGCAGCUACUGACGGUGAUCAUUUCGCGCGCAG [theeternabot_sameState_KL_Theo_A_19] | 235 nM | 222 nM | 244 nM | 253 nM | 195 nM |
| UGACUGGACUGAAGGAGCGCGCGAGACAAAGUCUCGAACUGGUAGUGAUGUUAUCAAAUAACGCAGGUAGGUCGCAGUCUAGUCU [ArgBS 12 #SwitchBubble #StaticStem] | 251 nM | 167 nM | 255 nM | 193 nM | 188 nM |
| AAUAUCUAGUAUAUUUUUAAUAAAACAGAUACCAGUGAUAAUAGACACCCUUGGCAGCUGGUCGAGUGAUGUUCGUUUAUUUUAA [JR_SSTheophyA_Sub005] | 82.5 nM | 79.5 nM | 105 nM | 168 nM | 60 nM |
| GGAUGGUAGGCGGCCGCCACUAAAACAGAACACAUACAAGCCAGUGAUGUUGGUAUGAUGGUGUAUAGGACCGGGCCUAGAUAGA [Exclusion - Tryptophan B (Freestyle 5)] | 197 nM | 178 nM | 199 nM | 186 nM | 196 nM |
| AAGUCUCGUUAAUUCGAGGUUGCGAUCGAUACCAGUAGCGAGAGGUACCCUUGGCAGCGAAGUGAGUGAUGUUCAUGAAAGAAGA [KL-XTheoA13] | 59.8 nM | 101 nM | 107 nM | 113 nM | 68.6 nM |
| GAGAGCCCUGUAGGAUAUGAGUCUAGUGAUGUUAGGCGGUCCAUGCGCGUGGCGCGUUAUGCCCUUUUAGAAGGACAGGGCUCUC [#2 Exclusion - FMN B Attempt #20 (HarryS)] | 105 nM | 67.2 nM | 80.9 nM | 80.1 nM | 80 nM |
| UGACUGGAUGGAAGGAGCGCUAAACUCCUAGUGAUGUUAGGGACACGAGACAAAGUCUUGAAGCAGGUAGGUCGCCAUCUAGUCU [FiskerMod 9 - Jieux - Same State - Arginine B] | 217 nM | 187 nM | 229 nM | 228 nM | 238 nM |
